From the supplement of paper PMC9112550, “Optimization of the antimicrobial peptide Bac7 by deep mutational scanning” (BMC Biology, 2022) come the findings set out here.
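Further: peptides expressed intracellularly from a pBAD plasmid library in pooled LB shake-flask culture, induced with 0.3% L-arabinose, DNA abundance read by NGS, three biological replicates, DESeq2 with apeglm shrinkage.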

This data set concerns Escherichia coli TOP10. Kind of data set: shrunken log2 fold change of peptide-encoding DNA abundance (4.5 h post-induction vs induction); higher = less antimicrobial activity (less host growth inhibition). The note with it: time post-induction: 4.5 h; library: site-saturation at positions 5, 18, 19, 20.
Regarding RRIRNRPPRLPRPRPRPRFSPRP, the “shrunken log2 fold change” value is 0.0393.

Consider RRIRCRPPRLPRPRPRPYWEPRP, for which the “shrunken log2 fold change” value was -0.388.

As for RRIRHRPPRLPRPRPRPGHTPRP, the “shrunken log2 fold change” value is 0.105.

For the sequence RRIRARPPRLPRPRPRPYCTPRP, the “shrunken log2 fold change” value was -0.0621.

On to RRIRRRPPRLPRPRPRPRVSPRP, for which the “shrunken log2 fold change” value is 0.335.

Take RRIRRRPPRLPRPRPRPWDPPRP: the “shrunken log2 fold change” value was -0.119.

As to RRIRIRPPRLPRPRPRPLYTPRP, the “shrunken log2 fold change” value is -0.723.

In the case of RRIRIRPPRLPRPRPRPSVKPRP, the “shrunken log2 fold change” value was -0.037.

On to RRIRGRPPRLPRPRPRPYKSPRP, for which the “shrunken log2 fold change” value was -0.135.

For the sequence RRIRVRPPRLPRPRPRPMMTPRP, the “shrunken log2 fold change” value came to 0.0496.

With RRIRKRPPRLPRPRPRPEPFPRP, the “shrunken log2 fold change” value was 0.0238.

As to RRIRYRPPRLPRPRPRPELYPRP, the “shrunken log2 fold change” value was -0.106.

With RRIRKRPPRLPRPRPRPWGSPRP, the “shrunken log2 fold change” value is -0.034.

RRIRMRPPRLPRPRPRPFYQPRP: the “shrunken log2 fold change” value is -0.297.

Turning to RRIRNRPPRLPRPRPRPKCQPRP, the “shrunken log2 fold change” value stood at 0.0753.

For RRIRARPPRLPRPRPRPHFCPRP, the “shrunken log2 fold change” value is -0.105.

Turning to RRIRGRPPRLPRPRPRPVMIPRP, the “shrunken log2 fold change” value came out at 0.157.

Regarding RRIRVRPPRLPRPRPRPRPDPRP, the “shrunken log2 fold change” value was 0.216.

Consider RRIRPRPPRLPRPRPRPTATPRP, for which the “shrunken log2 fold change” value was 0.425.

As for RRIRYRPPRLPRPRPRPTGIPRP, the “shrunken log2 fold change” value is -0.114.

With RRIRVRPPRLPRPRPRPRTKPRP, the “shrunken log2 fold change” value came to 0.0796.

Turning to RRIRTRPPRLPRPRPRPHFEPRP, the “shrunken log2 fold change” value was -0.323.

Take RRIRLRPPRLPRPRPRPWCKPRP: the “shrunken log2 fold change” value is -0.213.

On to RRIRKRPPRLPRPRPRPCCKPRP, for which the “shrunken log2 fold change” value worked out at 0.099.

For the sequence RRIRERPPRLPRPRPRPWCSPRP, the “shrunken log2 fold change” value is -0.177.

Consider RRIRFRPPRLPRPRPRPAKSPRP, for which the “shrunken log2 fold change” value is -0.135.

Turning to RRIRNRPPRLPRPRPRPNCQPRP, the “shrunken log2 fold change” value is -0.182.

Take RRIRVRPPRLPRPRPRPVIDPRP: the “shrunken log2 fold change” value worked out at 0.0104.

As for RRIRWRPPRLPRPRPRPRYNPRP, the “shrunken log2 fold change” value was -0.396.

RRIRCRPPRLPRPRPRPTHYPRP: the “shrunken log2 fold change” value was found to be 0.513.

For RRIRIRPPRLPRPRPRPSVPPRP, the “shrunken log2 fold change” value is -0.835.

Consider RRIRGRPPRLPRPRPRPQLQPRP, for which the “shrunken log2 fold change” value was determined as 0.577.

Regarding RRIRLRPPRLPRPRPRPNHSPRP, the “shrunken log2 fold change” value came to 0.135.

As to RRIRCRPPRLPRPRPRPAPEPRP, the “shrunken log2 fold change” value was 0.766.

RRIRKRPPRLPRPRPRPILEPRP: the “shrunken log2 fold change” value is 0.261.

In the case of RRIRCRPPRLPRPRPRPEALPRP, the “shrunken log2 fold change” value was found to be 0.0749.

On to RRIRARPPRLPRPRPRPLPIPRP, for which the “shrunken log2 fold change” value stood at 0.205.

RRIRTRPPRLPRPRPRPMMWPRP: the “shrunken log2 fold change” value was 0.00735.

Regarding RRIRYRPPRLPRPRPRPVEEPRP, the “shrunken log2 fold change” value is -0.32.

In the case of RRIRMRPPRLPRPRPRPTYDPRP, the “shrunken log2 fold change” value stood at 0.473.

For RRIRTRPPRLPRPRPRPWFKPRP, the “shrunken log2 fold change” value was -0.214.

Take RRIRCRPPRLPRPRPRPPAPPRP: the “shrunken log2 fold change” value came out at 1.11.

RRIRYRPPRLPRPRPRPNVYPRP: the “shrunken log2 fold change” value is -1.2.

RRIRERPPRLPRPRPRPSEQPRP: the “shrunken log2 fold change” value is -0.0297.

Regarding RRIRHRPPRLPRPRPRPWQVPRP, the “shrunken log2 fold change” value was -0.0402.

RRIRRRPPRLPRPRPRPRCGPRP: the “shrunken log2 fold change” value came out at 0.474.

For the sequence RRIRLRPPRLPRPRPRPTNNPRP, the “shrunken log2 fold change” value was -0.524.

RRIRARPPRLPRPRPRPHKVPRP: the “shrunken log2 fold change” value stood at 0.31.

As for RRIRRRPPRLPRPRPRPEKKPRP, the “shrunken log2 fold change” value worked out at 0.0396.

As for RRIRWRPPRLPRPRPRPPRQPRP, the “shrunken log2 fold change” value is 0.209.

Turning to RRIRIRPPRLPRPRPRPMLRPRP, the “shrunken log2 fold change” value is -0.119.

In the case of RRIRKRPPRLPRPRPRPNCFPRP, the “shrunken log2 fold change” value amounted to 0.274.

For the sequence RRIRGRPPRLPRPRPRPRMVPRP, the “shrunken log2 fold change” value was 0.643.

With RRIRWRPPRLPRPRPRPQMKPRP, the “shrunken log2 fold change” value was -0.316.

With RRIRLRPPRLPRPRPRPDQNPRP, the “shrunken log2 fold change” value is -0.0565.

As to RRIRARPPRLPRPRPRPMPNPRP, the “shrunken log2 fold change” value turned out to be 0.353.

In the case of RRIRDRPPRLPRPRPRPLQFPRP, the “shrunken log2 fold change” value was 0.0246.

With RRIRDRPPRLPRPRPRPRCGPRP, the “shrunken log2 fold change” value is 0.565.

For RRIRSRPPRLPRPRPRPAMAPRP, the “shrunken log2 fold change” value was determined as 1.64.

As for RRIRPRPPRLPRPRPRPNYFPRP, the “shrunken log2 fold change” value is -0.435.

For the sequence RRIRPRPPRLPRPRPRPIARPRP, the “shrunken log2 fold change” value is -0.0116.

In the case of RRIRRRPPRLPRPRPRPFYDPRP, the “shrunken log2 fold change” value is -0.193.

For RRIRCRPPRLPRPRPRPIIMPRP, the “shrunken log2 fold change” value is -0.888.

Regarding RRIRLRPPRLPRPRPRPVTQPRP, the “shrunken log2 fold change” value was -0.323.

With RRIRARPPRLPRPRPRPNINPRP, the “shrunken log2 fold change” value is -0.349.

RRIRDRPPRLPRPRPRPNFTPRP: the “shrunken log2 fold change” value was -0.0368.

For RRIRFRPPRLPRPRPRPYIIPRP, the “shrunken log2 fold change” value was -0.395.

Take RRIRSRPPRLPRPRPRPWQLPRP: the “shrunken log2 fold change” value was -0.018.

For the sequence RRIRYRPPRLPRPRPRPYAEPRP, the “shrunken log2 fold change” value was -0.193.

As for RRIRDRPPRLPRPRPRPGTQPRP, the “shrunken log2 fold change” value is 0.00934.

As for RRIRPRPPRLPRPRPRPFNAPRP, the “shrunken log2 fold change” value was -0.287.

On to RRIRIRPPRLPRPRPRPWLNPRP, for which the “shrunken log2 fold change” value is -0.562.

Regarding RRIRSRPPRLPRPRPRPGGTPRP, the “shrunken log2 fold change” value amounted to 0.247.

As to RRIRYRPPRLPRPRPRPARGPRP, the “shrunken log2 fold change” value was 0.515.

In the case of RRIRERPPRLPRPRPRPYPCPRP, the “shrunken log2 fold change” value was -0.00884.

As to RRIRWRPPRLPRPRPRPTNMPRP, the “shrunken log2 fold change” value was -0.154.

On to RRIRFRPPRLPRPRPRPMKTPRP, for which the “shrunken log2 fold change” value was -0.0807.

On to RRIRLRPPRLPRPRPRPHILPRP, for which the “shrunken log2 fold change” value was -0.0127.

For RRIRYRPPRLPRPRPRPMPKPRP, the “shrunken log2 fold change” value is -0.0102.

As to RRIRWRPPRLPRPRPRPQPTPRP, the “shrunken log2 fold change” value was 0.334.

Take RRIRERPPRLPRPRPRPSYFPRP: the “shrunken log2 fold change” value was -0.48.

As for RRIRHRPPRLPRPRPRPRAFPRP, the “shrunken log2 fold change” value was -0.146.

With RRIRQRPPRLPRPRPRPHHSPRP, the “shrunken log2 fold change” value was -0.107.

For RRIRWRPPRLPRPRPRPYAIPRP, the “shrunken log2 fold change” value was -0.347.

RRIRWRPPRLPRPRPRPLNDPRP: the “shrunken log2 fold change” value was -0.281.

For RRIRERPPRLPRPRPRPWSKPRP, the “shrunken log2 fold change” value is -0.466.

Regarding RRIRCRPPRLPRPRPRPVCSPRP, the “shrunken log2 fold change” value was -0.0747.

With RRIRMRPPRLPRPRPRPLYHPRP, the “shrunken log2 fold change” value was -0.0416.

With RRIRGRPPRLPRPRPRPHLTPRP, the “shrunken log2 fold change” value came out at 0.357.

RRIRMRPPRLPRPRPRPMYAPRP: the “shrunken log2 fold change” value stood at 0.0486.

As for RRIRGRPPRLPRPRPRPPIEPRP, the “shrunken log2 fold change” value is 0.196.

For the sequence RRIRYRPPRLPRPRPRPVCDPRP, the “shrunken log2 fold change” value was -0.623.

Turning to RRIRQRPPRLPRPRPRPPQCPRP, the “shrunken log2 fold change” value came out at 0.114.

For RRIRKRPPRLPRPRPRPSCRPRP, the “shrunken log2 fold change” value was determined as 0.0107.

For the sequence RRIRKRPPRLPRPRPRPRIPPRP, the “shrunken log2 fold change” value stood at 0.11.

With RRIRHRPPRLPRPRPRPLVRPRP, the “shrunken log2 fold change” value was -0.103.

With RRIRIRPPRLPRPRPRPFFAPRP, the “shrunken log2 fold change” value was 0.073.

Take RRIRPRPPRLPRPRPRPWHFPRP: the “shrunken log2 fold change” value was -0.12.

For the sequence RRIRQRPPRLPRPRPRPSQDPRP, the “shrunken log2 fold change” value is -0.0378.

Regarding RRIRERPPRLPRPRPRPEGLPRP, the “shrunken log2 fold change” value is -0.00749.

Regarding RRIRLRPPRLPRPRPRPACPPRP, the “shrunken log2 fold change” value is -0.00982.

RRIRQRPPRLPRPRPRPAFYPRP: the “shrunken log2 fold change” value was -0.0263.

Consider RRIRKRPPRLPRPRPRPGCTPRP, for which the “shrunken log2 fold change” value is 0.517.

For RRIRNRPPRLPRPRPRPIKWPRP, the “shrunken log2 fold change” value is -0.498.

For the sequence RRIRERPPRLPRPRPRPRFRPRP, the “shrunken log2 fold change” value is 0.0352.

For RRIRKRPPRLPRPRPRPVVTPRP, the “shrunken log2 fold change” value was determined as 0.417.

Regarding RRIRVRPPRLPRPRPRPGIGPRP, the “shrunken log2 fold change” value stood at 0.344.

Regarding RRIRRRPPRLPRPRPRPTMVPRP, the “shrunken log2 fold change” value was found to be 0.283.

RRIRPRPPRLPRPRPRPPMDPRP: the “shrunken log2 fold change” value stood at 0.126.

RRIRHRPPRLPRPRPRPSGHPRP: the “shrunken log2 fold change” value was -0.172.

On to RRIRVRPPRLPRPRPRPTWVPRP, for which the “shrunken log2 fold change” value worked out at 0.228.

As for RRIRGRPPRLPRPRPRPKEPPRP, the “shrunken log2 fold change” value stood at 0.875.

Consider RRIRGRPPRLPRPRPRPFENPRP, for which the “shrunken log2 fold change” value is 0.0511.

On to RRIRHRPPRLPRPRPRPMDPPRP, for which the “shrunken log2 fold change” value is -0.385.

Regarding RRIRCRPPRLPRPRPRPWRPPRP, the “shrunken log2 fold change” value amounted to 0.0893.

Turning to RRIRRRPPRLPRPRPRPFIQPRP, the “shrunken log2 fold change” value was -0.0404.

For the sequence RRIRTRPPRLPRPRPRPAQMPRP, the “shrunken log2 fold change” value amounted to 0.0652.

Turning to RRIRGRPPRLPRPRPRPSYRPRP, the “shrunken log2 fold change” value was -0.144.

RRIRRRPPRLPRPRPRPCPYPRP: the “shrunken log2 fold change” value came to 0.0825.

For RRIRSRPPRLPRPRPRPNAAPRP, the “shrunken log2 fold change” value is 0.675.

Regarding RRIRSRPPRLPRPRPRPFCLPRP, the “shrunken log2 fold change” value is -0.302.

As to RRIRSRPPRLPRPRPRPFTDPRP, the “shrunken log2 fold change” value was -0.04.

For the sequence RRIRFRPPRLPRPRPRPNENPRP, the “shrunken log2 fold change” value turned out to be 0.00257.

For RRIRERPPRLPRPRPRPPLMPRP, the “shrunken log2 fold change” value amounted to 0.0142.

As for RRIRMRPPRLPRPRPRPNGMPRP, the “shrunken log2 fold change” value was 0.185.
